Test [1] deals with T1, human MSLN-FL-his protein (human, UniProt Q13421 296-580).
T1 construct: also called human MSLN full-length protein; hMSLN-FL-his; not shown: His tag
Kind of test: ELISA, coated antigen; antibody 0.01 nM. (In an ELISA, binding on a coated surface is turned into a signal by an enzyme label.)

Test [2] concerns the target T2, human MSLN-R2-his protein (human, UniProt Q13421 391-486).
T2 construct: also called human MSLN-R2 protein; hMSLN-R2-his; not shown: His tag
Kind of test: ELISA, coated antigen; no antibody (blank, column 'none').

For test [3], the target named is T3, human MSLN-R1-his protein (human, UniProt Q13421 296-390).
T3 construct: also called human MSLN-R1 protein; hMSLN-R1-his; not shown: His tag
Briefly: ELISA, coated antigen; antibody 1 nM.

The target of test [4] is T2, human MSLN-R2-his protein. Kind of test: ELISA, coated antigen; antibody 0.01 nM.
Protocol: (§1) The plate was sealed with a plastic film and incubated at 4° C. overnight. The next day, the plate was washed twice with PBST, and a blocking buffer [PBS+2% (w/w) BSA] was added for blocking at room temperature for 2 h. The blocking buffer was discarded, and a chimeric antibody or negative control antibody serially diluted from 100 nM was added at 50 μL/well. After incubation at 37° C. for 2 h, the plate was washed 3 times with PBST. […] After incubation at 37° C. for 2 h, the plate was washed 5 times with PBST. A TMB substrate was added at 50 μL/well for incubation at room temperature for 5-10 min, and then a stop solution (1.0 N HCl) was added at 50 μL/well.
Test [5] concerns the target T2, human MSLN-R2-his protein. Briefly: ELISA, coated antigen; antibody 0.001 nM.
Protocol: as §1
For test [6], the target named is T3, human MSLN-R1-his protein. Kind of test: ELISA, coated antigen; antibody 0.1 nM.
Protocol: as §1
The target of test [7] is T1, human MSLN-FL-his protein. Kind of test: ELISA, coated antigen; no antibody (blank, column 'none').
Protocol: as §1
Test [8] deals with T1, human MSLN-FL-his protein. Kind of test: ELISA, coated antigen; antibody 1 nM.
Protocol: as §1
Test [9] deals with T3, human MSLN-R1-his protein. Briefly: ELISA, coated antigen; antibody 10 nM.
Protocol: as §1
The target of test [10] is T3, human MSLN-R1-his protein. Briefly: ELISA, coated antigen; antibody 0.001 nM.
Protocol: as §1
The target of test [11] is T3, human MSLN-R1-his protein. Kind of test: ELISA, coated antigen; antibody 0.01 nM.
Protocol: as §1
In test [12] the target is T2, human MSLN-R2-his protein. Kind of test: ELISA, coated antigen; antibody 1 nM.
Protocol: as §1
The target of test [13] is T3, human MSLN-R1-his protein. Briefly: ELISA, coated antigen; antibody 100 nM.
Protocol: as §1
Test [14] concerns the target T2, human MSLN-R2-his protein. Briefly: ELISA, coated antigen; antibody 100 nM.
Protocol: as §1
In test [15] the target is T2, human MSLN-R2-his protein. Kind of test: ELISA, coated antigen; antibody 0.0001 nM.
Protocol: as §1
In test [16] the target is T3, human MSLN-R1-his protein. Briefly: ELISA, coated antigen; no antibody (blank, column 'none').
Protocol: as §1
In test [17] the target is T1, human MSLN-FL-his protein. Kind of test: ELISA, coated antigen; antibody 0.1 nM.
Protocol: as §1
Test [18] concerns the target T2, human MSLN-R2-his protein. Kind of test: ELISA, coated antigen; antibody 0.1 nM.
Protocol: as §1
Test [19] has as its target T1, human MSLN-FL-his protein. Briefly: ELISA, coated antigen; antibody 0.0001 nM.
Protocol: as §1
The target in test [20] is T1, human MSLN-FL-his protein. Briefly: ELISA, coated antigen; antibody 100 nM.
Protocol: as §1
Test [21] addresses T1, human MSLN-FL-his protein. Briefly: ELISA, coated antigen; antibody 10 nM.
Protocol: as §1
The target of test [22] is T1, human MSLN-FL-his protein. Kind of test: ELISA, coated antigen; antibody 0.001 nM.
Protocol: as §1
Test [23] has as its target T2, human MSLN-R2-his protein. Briefly: ELISA, coated antigen; antibody 10 nM.
Protocol: as §1
For test [24], the target named is T3, human MSLN-R1-his protein. Kind of test: ELISA, coated antigen; antibody 0.0001 nM.
Protocol: as §1
For test [25], the target named is T4, human MSLN-R3-3 polypeptide (human).
T4 construct: Part of region R3 of human MSLN; also called hMSLN-R3-3; human MSLN-R3-3 protein
Kind of test: ELISA, coated antigen, antibody 100 nM.
Protocol: as §1

Test [26] concerns the target T4, human MSLN-R3-3 polypeptide. Briefly: ELISA, coated antigen, antibody 10 nM.
Protocol: as §1
Test [27] concerns the target T5, human MSLN-R3-his protein (human, UniProt Q13421 487-598).
T5 construct: Made in HEK293E cells, purified on nickel column; also called hMSLN-R3-his; human MSLN-R3 protein; not shown: His tag
Kind of test: ELISA, coated antigen, antibody 0.1 nM.

Test [28] concerns the target T4, human MSLN-R3-3 polypeptide. Kind of test: ELISA, coated antigen, antibody 1 nM.
Protocol: as §1
The target in test [29] is T5, human MSLN-R3-his protein. Kind of test: ELISA, coated antigen, antibody 0.01 nM.
Protocol: as §1
Test [30] addresses T5, human MSLN-R3-his protein. Kind of test: ELISA, coated antigen, antibody 0.0001 nM.
For test [31], the target named is T4, human MSLN-R3-3 polypeptide. Briefly: ELISA, coated antigen, antibody 0.001 nM.
Protocol: as §1
Test [32] deals with T5, human MSLN-R3-his protein. Briefly: ELISA, coated antigen, antibody 10 nM.
Protocol: as §1
In test [33] the target is T4, human MSLN-R3-3 polypeptide. Briefly: ELISA, coated antigen, antibody 0.1 nM.
Protocol: as §1
Test [34] has as its target T5, human MSLN-R3-his protein. Briefly: ELISA, coated antigen, antibody 100 nM.
Protocol: as §1
Test [35] deals with T4, human MSLN-R3-3 polypeptide. Kind of test: ELISA, coated antigen, no antibody (blank).
Test [36] concerns the target T5, human MSLN-R3-his protein. Kind of test: ELISA, coated antigen, antibody 0.001 nM.
Protocol: as §1
The target of test [37] is T4, human MSLN-R3-3 polypeptide. Briefly: ELISA, coated antigen, antibody 0.01 nM.
Protocol: as §1
Test [38] has the same target. Briefly: ELISA, coated antigen, antibody 0.0001 nM.
Protocol: as §1
Test [39] deals with T5, human MSLN-R3-his protein. Kind of test: ELISA, coated antigen, no antibody (blank).
Protocol: as §1
Test [40] addresses T5, human MSLN-R3-his protein. Briefly: ELISA, coated antigen, antibody 1 nM.
Protocol: as §1

T5 sequence (Q13421 495-606): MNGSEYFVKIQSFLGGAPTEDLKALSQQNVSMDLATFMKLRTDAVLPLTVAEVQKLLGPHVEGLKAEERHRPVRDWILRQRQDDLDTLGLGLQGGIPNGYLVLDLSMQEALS
T3 sequence (Q13421 other isoform, or with tags, fused parts or gaps): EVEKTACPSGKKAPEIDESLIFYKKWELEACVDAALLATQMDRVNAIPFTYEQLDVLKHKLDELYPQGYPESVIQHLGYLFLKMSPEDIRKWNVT
T1 sequence (Q13421 other isoform, or with tags, fused parts or gaps): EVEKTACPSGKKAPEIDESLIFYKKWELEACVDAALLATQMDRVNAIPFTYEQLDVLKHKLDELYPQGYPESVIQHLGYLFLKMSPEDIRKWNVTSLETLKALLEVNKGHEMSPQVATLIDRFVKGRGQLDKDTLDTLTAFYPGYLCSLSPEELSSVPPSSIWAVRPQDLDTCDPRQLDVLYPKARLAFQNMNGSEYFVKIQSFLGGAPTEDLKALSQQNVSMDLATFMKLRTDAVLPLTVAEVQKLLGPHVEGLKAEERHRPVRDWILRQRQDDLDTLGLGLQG
T2 sequence (Q13421 other isoform, or with tags, fused parts or gaps): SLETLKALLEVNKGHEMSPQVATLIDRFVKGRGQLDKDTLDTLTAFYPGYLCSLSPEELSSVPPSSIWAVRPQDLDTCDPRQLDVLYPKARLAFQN

B1: S009-F4-94.15 (antibody, human IgG1, kappa, V domains shown)
VH: QVQLHQPGAELVRPGSSVKLSCKASGYTFTSYWVHWVQQRPRQGLEWIGNIDPSDSEIHYNQKFKDKATLTVDKSSSTAYIHLSRLTSEDSAIYYCVRGGVPWFAYWGQGTLVTVSA
VL: QIVLTQSPAIMSASPGEKVTLTCSASSSVSSTYLYWFQQKPGSSPKVWIYSTSNLASGVPARFSGSGSGTSYSLTISSMEAEDAASYFCHQWISYPYTFGGGTKLEIKR
notes: Human-murine chimeric antibody, human IgG1/kappa constant regions
Consider B1, for which the OD450 in [1] was 0.57 OD450; in test [2], 0.07 OD450; in test [3] it was 0.05 OD450; in test [4], 0.05 OD450; in test [5], 0.05 OD450; in [6], 0.05 OD450. Moreover, the OD450 in test [7] is 0.06 OD450; in test [8] it was 1.79 OD450; in test [9], 0.06 OD450; in test [10], 0.05 OD450; in test [11], 0.05 OD450; in test [12] it was 0.05 OD450. The OD450 was 0.07 OD450 in test [13]; 0.07 OD450 in test [14]; 0.06 OD450 in test [15]; 0.07 OD450 in [16]; 1.57 OD450 in test [17]; 0.05 OD450 in [18]. Further, the OD450 worked out at 0.06 OD450 in test [19]; 1.9 OD450 in test [20]; 1.84 OD450 in test [21]; 0.13 OD450 in test [22]; 0.06 OD450 in test [23]; 0.05 OD450 in test [24].

B2: S009-F4-127.10 (antibody, human IgG1, kappa, V domains shown)
VH: EVQLQQSGPVLVKPGASVKMSCKASGYTFTDYYMNWVKQSHGKSPEWIGVINPYNDVISYNQKFKGKATLTVDKSSSTAYMELNSLTSEDSAVYYCANYGSSYYAMDYWGQGTSVTVSS
VL: DVVMTQTPLSLSVSLGDQASISCRSSQSLVHSNGNTYLQWSLQKPGQSPNLLIYKVSNRFSGVPDRFSGSGSGTDFTLKISRVEAEDLGVYFCSQTTHVPFTFGGGTKLEIRR
notes: as for B1
With B2, the OD450 in [1] came to 0.06 OD450; in test [2], 0.06 OD450; in test [3] it was 0.05 OD450; in test [4] it was 0.05 OD450; in [5] it was 0.05 OD450; in test [6] it was 0.05 OD450. The OD450 turned out to be 0.06 OD450 in test [7]; 0.06 OD450 in [8]; 0.06 OD450 in [9]; 0.05 OD450 in [10]; 0.05 OD450 in test [11]; 0.05 OD450 in test [12]. The OD450 in [13] was determined as 0.08 OD450; in test [14], 0.09 OD450; in test [15], 0.06 OD450; in [16] it was 0.06 OD450; in test [17], 0.06 OD450; in test [18], 0.05 OD450. Besides, the OD450 in [19] is 0.06 OD450; in test [20] it was 0.21 OD450; in [21] it was 0.09 OD450; in test [22], 0.06 OD450; in test [23], 0.06 OD450; in [24], 0.05 OD450.

B3: S009-F6-76.1 chimeric antibody (antibody, human IgG1, kappa, V domains shown)
VH: QVQLQQSGPELVKPGASVKISCKASGYTFTDYYINWVKQRPGQGLEWIGWIFPGRGSTFYYEKFKGKATLTVDKSSSTAYMLLSSLTSEDSAVYFCARRGDSAGYEDLDYWGQGTSVTVSS
VL: NIVMTQSPKFMSMSVGERVTLSCKASENVVTYVSWYQQKPKQSPKLLIYGASKRYTGVPDRFTGSGSATDFTLTISSVQAEDLGDYHCGQSYSYPYTFGGGTKLEIKR
notes: as for B1
As to B3, the OD450 in test [25] is 0.07; in test [26], 0.04; in test [27] it was 0.04; in test [28], 0.04; in [29] it was 0.04; in test [30] it was 0.04. Moreover, the OD450 in test [31] turned out to be 0.04; in test [32], 0.05; in test [33] it was 0.05; in [34] it was 0.08; in test [35] it was 0.04; in test [36], 0.05. Besides, the OD450 in [37] turned out to be 0.05; in [38], 0.05; in test [39], 0.05; in test [40] it was 0.04.

B4: S009-F5-9.16 (antibody, human IgG1, kappa, V domains shown)
VH: EVQLRQSGPVLVKPGASVKMSCKASGYTFTDYFMNWVKPSHGKSLEWIGVINPSNGVINYNQRFKGKATLTVDKSSSTAYMELNSLTSEDSAVYYCARSYDFAWFAYWGQGTLVTVSA
VL: DVLMTQTPLSLPVSLGDQASISCRSSQNIVHSNGNTYLEWYLQKPGQSPKLLIYTVSNRFSGVPDRFSGSGSGTDFTLKISRVEAEDLGVYYCFQGSHVPYTFGGGTKLEIKR
notes: as for B1
With B4, the OD450 stood at 0.04 OD450 in [1]; 0.05 OD450 in test [2]; 0.04 OD450 in test [3]; 0.04 OD450 in [4]; 0.04 OD450 in test [5]; 0.04 OD450 in test [6]. Moreover, the OD450 in test [7] amounted to 0.05 OD450; in [8], 0.06 OD450; in test [9], 0.05 OD450; in test [10], 0.04 OD450; in test [11] it was 0.04 OD450; in test [12], 0.04 OD450. Moreover, the OD450 came to 0.09 OD450 in test [13]; 0.13 OD450 in [14]; 0.04 OD450 in test [15]; 0.04 OD450 in test [16]; 0.04 OD450 in test [17]; 0.04 OD450 in test [18]. The OD450 worked out at 0.04 OD450 in [19]; 1.12 OD450 in test [20]; 0.19 OD450 in test [21]; 0.04 OD450 in [22]; 0.06 OD450 in test [23]; 0.05 OD450 in test [24].

Values taken from patent US20250250357A1 (NANJING ZAIMING PHARMACEUTICAL, published 2025).
